4 molecules from PMC5532214, “Natural variations in the biofilm-associated protein BslA from the genus Bacillus” (Scientific Reports, 2017) can be followed below.

Common to all, as to assay: SEC; purified, untagged mature regions of the proteins analysed by size exclusion chromatography; SDS-PAGE with and without β-mercaptoethanol was run alongside
Background: In gel filtration, larger molecules generally elute earlier.

Series [1] deals with Bacillus pumilus BslA(37-177) (Bacillus pumilus SAFR-032).
For series [2], the target named is Bacillus amyloliquefaciens BslA(42-181) (Bacillus amyloliquefaciens FZB42).
Series [3] addresses Bacillus licheniformis BslA(40-179) (Bacillus licheniformis DSM13).
Series [4] deals with the molecule itself.

Usually stoichiometry N stands for the number of molecules, sites or subunits per partner or assembly. On to “Bacillus pumilus BslA(37-177) (domain or fragment)”, for which the stoichiometry N in series [1] was determined as 2.

Consider “Bacillus amyloliquefaciens BslA(42-181) (domain or fragment)”, for which the stoichiometry N in series [2] was 2.

With “Bacillus licheniformis BslA(40-179) (domain or fragment)”, in series [3], the stoichiometry N was 2.

B1: Bacillus subtilis BslA(42-181) (domain or fragment, B. subtilis, UniProt P71014 42-181, looked up)
chain: MRTQSTASLFATITGASKTEWSFSDIELTYRPNTLLSLGVMEFTLPSGFTANTKDTLNGNALRTTQILNNGKTVRVPLALDLLGAGEFKLKLNNKTLPAAGTYTFRAENKSLSIGNKFYAEASIDVAKRSTPPTQPCGCN
notes: BslA of Bacillus subtilis, truncated protein BslA 42-181 (mature region), on which the previous analyses were based; also called Bs-BslA; source: E. coli BL21 (DE3) pLysS, purified (Glutathione Sepharose, TEV cleavage, SEC)
B1: in series [4], the “stoichiometry N” value was 2.
